T1: P2 A protein (replication initiation protein A), His6-tagged (Bacteriophage P2, UniProt Q06419 Q06419:1-761)
T1 sequence: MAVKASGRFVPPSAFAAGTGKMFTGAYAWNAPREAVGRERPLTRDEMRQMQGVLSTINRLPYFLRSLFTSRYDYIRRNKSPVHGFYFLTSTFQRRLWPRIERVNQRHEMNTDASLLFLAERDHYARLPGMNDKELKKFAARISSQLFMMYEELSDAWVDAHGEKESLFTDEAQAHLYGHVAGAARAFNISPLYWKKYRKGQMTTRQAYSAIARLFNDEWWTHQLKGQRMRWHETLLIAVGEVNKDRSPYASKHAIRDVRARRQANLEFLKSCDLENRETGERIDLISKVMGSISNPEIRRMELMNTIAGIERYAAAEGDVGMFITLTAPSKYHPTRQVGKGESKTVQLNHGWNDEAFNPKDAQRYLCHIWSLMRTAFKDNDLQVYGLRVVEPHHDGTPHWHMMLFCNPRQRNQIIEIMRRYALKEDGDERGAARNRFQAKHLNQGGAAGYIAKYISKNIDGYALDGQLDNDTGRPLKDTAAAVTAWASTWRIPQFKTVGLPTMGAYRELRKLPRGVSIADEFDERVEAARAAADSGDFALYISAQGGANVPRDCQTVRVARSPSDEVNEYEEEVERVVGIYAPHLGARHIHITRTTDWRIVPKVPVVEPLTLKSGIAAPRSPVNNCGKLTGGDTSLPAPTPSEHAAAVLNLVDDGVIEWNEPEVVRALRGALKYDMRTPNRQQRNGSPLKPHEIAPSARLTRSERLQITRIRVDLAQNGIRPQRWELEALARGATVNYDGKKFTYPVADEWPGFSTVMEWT

B1: pEE711 plasmid encoding His::A (contains P2 A attachment site) (dsDNA)
DNA 1: AGCGGCATCGCCGCGCCTCGGAGTCCTGTC
DNA 2: GACAGGACTCCGAGGCGCGGCGATGCCGCT
B2: pEN24 plasmid encoding His::A (contains P2 A attachment site) (dsDNA)
DNA 1: B1 DNA 1
DNA 2: B1 DNA 2

Assays:
[1] = molecular target: T1, P2 A protein (replication initiation …); assay: pulldown; Ni-NTA selection of His::A plasmid over A plasmid pEE709; cis covalent binding; whole plasmid assayed, listed sequence is only the attachment region; 50 mM Na-phosphate pH 8.0, 300 mM NaCl, 20 mM imidazole; settings: tags: N-terminal His6 (expressed from pEE711 or pEN24 in E. coli T7 S30 extract, Promega)
Description: One ug of DNA of the pEE709 and the pEE711 plasmids respectively was added to the coupled transcription/translation extract kit (20 ul S30 premix, 5 ul aminoacid mix and 15 ul *E. Coli* T7 S30 extract system for circular DNA, Promega, USA). The transcription/translation was allowed to proceed for 60 minutes at 37° C. The extract mixture was diluted 12-fold in washing buffer (Qiagen; […] Na-phosphate pH 8.0, 300 mM NaCl, 20 mM imidazole, 1 mM PMSF) and subjected to Ni selection by addition to a Ni-NTA spin column (Qiagen, Germany) equilibrated with Buffer 1 (50 mM Na-phosphate pH 8.0, 300 mM NaCl, 20 mM imidazole) under non-denaturing conditions. […] High efficiency competent cells JM109 (Promega, USA) were transformed with a portion of the eluant and scored for ampicillin resistant colonies. […]
To determine the distribution (ratio) of the plasmid types in the eluant, the presence of plasmids was measured by transformation of strain JM 109 (Promega) for amp-resistance. Colonies were picked and analysed for their plasmid type (differentiated by size) after plasmid extraction followed by agarose gel electrophoresis. The ratio of pEE711 (His::A) to pEE709 (A) in the absence of Ni-column selection was also determined.

[2] = molecular target: T1, P2 A protein (replication initiation …); assay: pulldown; Ni-NTA selection of His::A plasmid over A plasmid pEN21; no enrichment when S30 extract omitted; whole plasmid assayed, listed sequence is only the attachment region; 1 mM imidazole wash; settings: tags: N-terminal His6 (expressed from pEE711 or pEN24 in E. coli T7 S30 extract, Promega)
From the text: In the second experiment two new plasmid constructs pEN21 (an A gene construct with an amp resistance gene, see FIG. 1) and pEN24 (a His::A gene construct with a tag of six histidine residues and a kanamycin resistance gene, see FIG. 1) were subjected to the same type of experiment as in experiment 1 above, with the modifications indicated in the materials and methods section below. By employing this differential antibiotic resistance it is possible to score for the individual plasmid types directly as bacterial colonies.
Materials and Methods pEN21 and 24 are derivatives of pET21a and pET24a (Novagen Inc. USA). The pET21a and pET24a vectors differ only by their selectable marker (ampicillin and kanamycin resistance respectively). The pEN21 and pEN24 were constructed by restriction cutting of pEE709 and pEE711 with XbaI and BlpI which cuts out the A gene and flanking regions. pET21a and pET24a were cut with the same restriction enzymes. The A-fragments and new vector fragments were isolated from an agarose gel after electrophoresis by Spin-Bind columns (FMC). […] The plasmids were incubated for 30 minutes in the S30 extracts and the plasmid types were scored by differential antibiotic resistance using ampicillin (pEN21) and kanamycin (pEN24) plates after transformation of E. coli strain BK 2118 by electroporation. […]

Binder | binding signal [1] | binding signal [2]
B1 | 13.3 fold enrichment | 
B2 |  | 6.8 fold enrichment
